Reference: article PMC2756588

T1: Cdc25, P04821
T1 sequence (P04821 50-136, looked up): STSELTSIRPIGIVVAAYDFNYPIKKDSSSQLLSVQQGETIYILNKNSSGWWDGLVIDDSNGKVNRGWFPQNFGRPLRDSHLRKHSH

T2: Sla1-2, P32790
T2 sequence (P32790 60-140, looked up): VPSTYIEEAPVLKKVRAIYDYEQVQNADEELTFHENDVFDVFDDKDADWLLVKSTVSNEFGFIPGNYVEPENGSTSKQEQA

T3: Bzz1-2, P38822
T3 sequence (P38822 568-633, looked up): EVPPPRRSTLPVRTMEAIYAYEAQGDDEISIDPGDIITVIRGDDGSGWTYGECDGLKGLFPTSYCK

T4: Bud14, P27637
T4 sequence (P27637 247-328, looked up): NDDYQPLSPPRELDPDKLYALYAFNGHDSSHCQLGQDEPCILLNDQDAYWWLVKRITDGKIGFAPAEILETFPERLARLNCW

T5: Sla1-3, P32790
T5 sequence (P32790 344-424, looked up): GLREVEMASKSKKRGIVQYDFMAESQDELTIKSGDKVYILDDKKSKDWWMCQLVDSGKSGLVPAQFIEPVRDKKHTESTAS

T6: Bbc1, P47068
T6 sequence (P47068 1-78, looked up): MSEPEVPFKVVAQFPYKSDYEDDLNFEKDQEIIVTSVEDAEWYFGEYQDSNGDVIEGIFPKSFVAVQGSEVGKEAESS

T7: Lsb4, P32793
T7 sequence (P32793 402-468, looked up): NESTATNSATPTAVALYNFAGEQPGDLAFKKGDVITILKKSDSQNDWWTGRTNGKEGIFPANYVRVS

T8: Abp1, P15891
T8 sequence (P15891 535-592, looked up): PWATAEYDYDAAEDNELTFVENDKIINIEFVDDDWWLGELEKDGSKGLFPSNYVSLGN

T9: Pex13, P80667
T9 sequence (P80667 295-386, looked up): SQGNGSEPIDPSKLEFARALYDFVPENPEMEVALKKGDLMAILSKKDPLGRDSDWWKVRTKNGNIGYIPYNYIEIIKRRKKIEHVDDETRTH

T10: Nbp2, Q12163
T10 sequence (Q12163 103-180, looked up): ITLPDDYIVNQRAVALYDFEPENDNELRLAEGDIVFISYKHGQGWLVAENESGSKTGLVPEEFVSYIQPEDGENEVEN

T11: Hse1, P38753
T11 sequence (P38753 208-285, looked up): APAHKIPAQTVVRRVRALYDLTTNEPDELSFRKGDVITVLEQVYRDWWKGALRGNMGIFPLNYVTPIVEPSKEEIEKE

T12: Pin3, Q06449
T12 sequence (Q06449 53-122, looked up): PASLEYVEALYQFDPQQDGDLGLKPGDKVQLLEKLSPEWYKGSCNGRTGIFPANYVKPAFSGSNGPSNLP

T13: Fus1, P11710
T13 sequence (P11710 432-512, looked up): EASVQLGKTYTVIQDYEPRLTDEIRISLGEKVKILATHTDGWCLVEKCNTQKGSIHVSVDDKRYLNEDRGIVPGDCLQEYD

T14: Myo5, Q04439
T14 sequence (Q04439 1072-1160, looked up): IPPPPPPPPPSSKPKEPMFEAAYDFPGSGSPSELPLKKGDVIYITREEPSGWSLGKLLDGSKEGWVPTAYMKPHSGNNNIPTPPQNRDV

T15: Lsb3, P43603
T15 sequence (P43603 385-451, looked up): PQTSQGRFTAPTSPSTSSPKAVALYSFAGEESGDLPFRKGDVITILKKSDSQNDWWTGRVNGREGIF

T16: Lsb1, P53281
T16 sequence (P53281 45-122, looked up): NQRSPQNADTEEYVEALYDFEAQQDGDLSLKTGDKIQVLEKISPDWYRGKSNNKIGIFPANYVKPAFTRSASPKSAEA

T17: Boi2, P39969
T17 sequence (P39969 32-116, looked up): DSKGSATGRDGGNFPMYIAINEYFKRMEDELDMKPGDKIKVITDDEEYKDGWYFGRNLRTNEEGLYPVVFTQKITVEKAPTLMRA

T18: Bzz1-1, P38822
T18 sequence (P38822 478-572, looked up): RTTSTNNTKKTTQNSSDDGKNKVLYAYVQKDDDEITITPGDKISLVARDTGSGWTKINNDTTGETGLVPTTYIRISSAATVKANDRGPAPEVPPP

T19: Hof1, Q05080
T19 sequence (Q05080 590-669, looked up): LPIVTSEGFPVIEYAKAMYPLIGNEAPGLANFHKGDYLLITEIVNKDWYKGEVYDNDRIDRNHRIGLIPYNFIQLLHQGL

T20: Boi1, P38041
T20 sequence (P38041 1-86, looked up): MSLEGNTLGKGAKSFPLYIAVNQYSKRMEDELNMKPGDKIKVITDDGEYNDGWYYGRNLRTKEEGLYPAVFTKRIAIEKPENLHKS

T21: Cyk3, Q07533
T21 sequence (Q07533 1-83, looked up): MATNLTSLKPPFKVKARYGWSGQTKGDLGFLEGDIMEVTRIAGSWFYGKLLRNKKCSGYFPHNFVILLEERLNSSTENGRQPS

B1: unnamed (peptide)
chain: KRNRLKILLPFLEQS
B2: unnamed (peptide)
chain: NGRRRPKFRVQLSGN
B3: unnamed (peptide)
chain: RRRDFGAPANKRPRR

biological target: T1, Cdc25, P04821; test: SPOT array; conditions: median of control spots 969

Binder | SPOT intensity
B1 | 28
B2 | 87
B3 | 11

biological target: T2, Sla1-2, P32790; test: SPOT array; conditions: median of control spots 712

Binder | SPOT intensity
B1 | 0
B2 | 5
B3 | 0

biological target: T3, Bzz1-2, P38822; test: SPOT array; conditions: median of control spots 4538

Binder | SPOT intensity
B1 | 0
B2 | 0
B3 | 7

biological target: T4, Bud14, P27637; test: SPOT array; conditions: median of control spots 956

Binder | SPOT intensity
B1 | 8
B2 | 23
B3 | 4

biological target: GST; test: SPOT array; conditions: median of control spots 978

Binder | SPOT intensity
B1 | 5
B2 | 3
B3 | 3

biological target: T5, Sla1-3, P32790; test: SPOT array; conditions: median of control spots 5475

Binder | SPOT intensity
B1 | 49
B2 | 221
B3 | 30

biological target: T6, Bbc1, P47068; test: SPOT array; conditions: median of control spots 796

Binder | SPOT intensity
B1 | 46
B2 | 227
B3 | 20

biological target: T7, Lsb4, P32793; test: SPOT array; conditions: median of control spots 397

Binder | SPOT intensity
B1 | 0
B2 | 9
B3 | 4

biological target: T8, Abp1, P15891; test: SPOT array; conditions: median of control spots 935

Binder | SPOT intensity
B1 | 64
B2 | 209
B3 | 165

biological target: T9, Pex13, P80667; test: SPOT array; conditions: median of control spots 1341

Binder | SPOT intensity
B1 | 11
B2 | 5
B3 | 2

biological target: T10, Nbp2, Q12163; test: SPOT array; conditions: median of control spots 357

Binder | SPOT intensity
B1 | 22
B2 | 63
B3 | 2

biological target: T11, Hse1, P38753; test: SPOT array; conditions: median of control spots 1727

Binder | SPOT intensity
B1 | 25
B2 | 53
B3 | 5

biological target: Bem1-2, P29366; test: SPOT array; conditions: median of control spots 4347
Sequence (P29366 139-227): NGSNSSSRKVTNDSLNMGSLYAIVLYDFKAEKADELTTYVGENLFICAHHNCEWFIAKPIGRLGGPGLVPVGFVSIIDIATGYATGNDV

Binder | SPOT intensity
B1 | 0
B2 | 6
B3 | 4

biological target: T12, Pin3, Q06449; test: SPOT array; conditions: median of control spots 2171

Binder | SPOT intensity
B1 | 17
B2 | 11
B3 | 9

biological target: T13, Fus1, P11710; test: SPOT array; conditions: median of control spots 1200

Binder | SPOT intensity
B1 | 169
B2 | 75
B3 | 8

biological target: T14, Myo5, Q04439; test: SPOT array; conditions: median of control spots 471

Binder | SPOT intensity
B1 | 0
B2 | 2
B3 | 2

biological target: T15, Lsb3, P43603; test: SPOT array; conditions: median of control spots 406

Binder | SPOT intensity
B1 | 2
B2 | 8
B3 | 10

biological target: T16, Lsb1, P53281; test: SPOT array; conditions: median of control spots 388

Binder | SPOT intensity
B1 | 34
B2 | 114
B3 | 0

biological target: T17, Boi2, P39969; test: SPOT array; conditions: median of control spots 1161

Binder | SPOT intensity
B1 | 3
B2 | 5
B3 | 1

biological target: T18, Bzz1-1, P38822; test: SPOT array; conditions: median of control spots 4446

Binder | SPOT intensity
B1 | 0
B2 | 1
B3 | 3

biological target: Myo3, P36006; test: SPOT array; conditions: median of control spots 468

Binder | SPOT intensity
B1 | 10
B2 | 30
B3 | 16

biological target: Rvs167, P39743; test: SPOT array; conditions: median of control spots 2707
Sequence (P39743 419-482): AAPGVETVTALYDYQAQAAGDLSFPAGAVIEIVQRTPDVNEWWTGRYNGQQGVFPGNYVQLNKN

Binder | SPOT intensity
B1 | 0
B2 | 0
B3 | 0

biological target: T19, Hof1, Q05080; test: SPOT array; conditions: median of control spots 4086

Binder | SPOT intensity
B1 | 6
B2 | 24
B3 | 0

biological target: Sho1, P40073; test: SPOT array; conditions: median of control spots 1148
Sequence (P40073 287-367): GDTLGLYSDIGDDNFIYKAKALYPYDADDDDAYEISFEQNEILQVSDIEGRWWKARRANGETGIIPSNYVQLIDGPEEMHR

Binder | SPOT intensity
B1 | 81
B2 | 155
B3 | 90

biological target: T20, Boi1, P38041; test: SPOT array; conditions: median of control spots 1162

Binder | SPOT intensity
B1 | 9
B2 | 16
B3 | 0

biological target: T21, Cyk3, Q07533; test: SPOT array; conditions: median of control spots 1451

Binder | SPOT intensity
B1 | 14
B2 | 8
B3 | 3

biological target: Bem1-1, P29366; test: SPOT array; conditions: median of control spots 4282
Sequence (P29366 55-141): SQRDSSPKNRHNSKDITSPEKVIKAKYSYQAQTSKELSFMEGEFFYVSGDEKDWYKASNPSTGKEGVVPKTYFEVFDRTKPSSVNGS

Binder | SPOT intensity
B1 | 0
B2 | 0
B3 | 0
